According to patent JP2012157315A:

Target: EGFR (ミズーリ州セントルイス、シグマ社) (UniProt P00533)
Experiment: SPR (BIACORE X), fusion protein amine-coupled to the chip, 10-100 nM EGFR in flow

- Kd: 14.7 nM
B1: celB+Lama glama由来の抗EGFRのVHH抗体+Hisタグ融合タンパク質 (VHH, not shown: small tags and cut ends)
chain: QQVGTTADAHPRLTTYKCTSQNGCTRQNTSLVLDAATHFIHKKGTQTSCTNSNGLDTAICPDKQTCADNCVVDGITDYASYGVQTKNDTLTLQQYLQTGNATKSLSPRVYLLAEDGENYSMLKLLNQEFTFDVDASTLVCGMNGALYLSEMEASGGKSSLNQAGAKYGTGYCDAQCYTTPWINGEGNTESVGSCCQEMDIWEANARATGLTPHPCNTTGLYECSGSGCGDSGVCDKAGCGFNPYGLGAKDYYGYGLKVNTNETFTVVTQFLTNDNTTSGQLSEIRRLYIQNGQVIQNAAVTSGGKTVDSITKDFCSGEGSAFNRLGGLEEMGHALGRGMVLALSIWNDAGSFMQWLDGGSAGPCNATEGNPALIEKLYPDTHVKFSKIRWGDIGSTYRHQVQLVESGGGLVQAGDSLRLSCVDSGRDFSDYVMGWFRQAPGKEREFVAAISRNGITTRYADSVKGRFTISRDNDKNTVYLQMNSLKPEDTAVYYCATNSAGTYVSPRSRDYDGWGQGTQVTVSS
